Source: article PMC2936784 (Science (New York, N.Y.), 2009)

Molecular target: PTEN, purified from HEK293 cells (UniProt P60484 1-403)
Test: enzyme inhibition kinetics

PTEN, purified from HEK293 cells, sequence (P60484 whole entry): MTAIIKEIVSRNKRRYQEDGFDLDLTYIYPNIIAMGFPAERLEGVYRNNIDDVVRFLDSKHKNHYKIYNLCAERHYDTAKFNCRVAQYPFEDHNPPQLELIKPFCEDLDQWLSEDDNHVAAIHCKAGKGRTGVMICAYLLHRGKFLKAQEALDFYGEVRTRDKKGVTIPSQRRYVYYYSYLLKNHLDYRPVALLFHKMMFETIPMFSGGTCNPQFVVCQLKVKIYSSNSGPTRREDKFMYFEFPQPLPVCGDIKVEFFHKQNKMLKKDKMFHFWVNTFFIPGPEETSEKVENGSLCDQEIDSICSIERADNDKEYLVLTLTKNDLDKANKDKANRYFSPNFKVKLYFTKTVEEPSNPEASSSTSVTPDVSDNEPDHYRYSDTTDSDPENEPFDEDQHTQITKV

Ki: 19 nM
B1: Affinity purified full-length P-REX2a (natural protein, UniProt Q70Z35 1-1606, looked up)
chain: MSEDSRGDSRAESAKDLEKQLRLRVCVLSELQKTERDYVGTLEFLVSAFLHRMNQCAASKVDKNVTEETVKMLFSNIEDILAVHKEFLKVVEECLHPEPNAQQEVGTCFLHFKDKFRIYDEYCSNHEKAQKLLLELNKIRTIRTFLLNCMLLGGRKNTDVPLEGYLVTPIQRICKYPLILKELLKRTPRKHSDYAAVMEALQAMKAVCSNINEAKRQMEKLEVLEEWQSHIEGWEGSNITDTCTEMLMCGVLLKISSGNIQERVFFLFDNLLVYCKRKHRRLKNSKASTDGHRYLFRGRINTEVMEVENVDDGTADFHSSGHIVVNGWKIHNTAKNKWFVCMAKTPEEKHEWFEAILKERERRKGLKLGMEQDTWVMISEQGEKLYKMMCRQGNLIKDRKRKLTTFPKCFLGSEFVSWLLEIGEIHRPEEGVHLGQALLENGIIHHVTDKHQFKPEQMLYRFRYDDGTFYPRNEMQDVISKGVRLYCRLHSLFTPVIRDKDYHLRTYKSVVMANKLIDWLIAQGDCRTREEAMIFGVGLCDNGFMHHVLEKSEFKDEPLLFRFFSDEEMEGSNMKHRLMKHDLKVVENVIAKSLLIKSNEGSYGFGLEDKNKVPIIKLVEKGSNAEMAGMEVGKKIFAINGDLVFMRPFNEVDCFLKSCLNSRKPLRVLVSTKPRETVKIPDSADGLGFQIRGFGPSVVHAVGRGTVAAAAGLHPGQCIIKVNGINVSKETHASVIAHVTACRKYRRPTKQDSIQWVYNSIESAQEDLQKSHSKPPGDEAGDAFDCKVEEVIDKFNTMAIIDGKKEHVSLTVDNVHLEYGVVYEYDSTAGIKCNVVEKMIEPKGFFSLTAKILEALAKSDEHFVQNCTSLNSLNEVIPTDLQSKFSALCSERIEHLCQRISSYKKFSRVLKNRAWPTFKQAKSKISPLHSSDFCPTNCHVNVMEVSYPKTSTSLGSAFGVQLDSRKHNSHDKENKSSEQGKLSPMVYIQHTITTMAAPSGLSLGQQDGHGLRYLLKEEDLETQDIYQKLLGKLQTALKEVEMCVCQIDDLLSSITYSPKLERKTSEGIIPTDSDNEKGERNSKRVCFNVAGDEQEDSGHDTISNRDSYSDCNSNRNSIASFTSICSSQCSSYFHSDEMDSGDELPLSVRISHDKQDKIHSCLEHLFSQVDSITNLLKGQAVVRAFDQTKYLTPGRGLQEFQQEMEPKLSCPKRLRLHIKQDPWNLPSSVRTLAQNIRKFVEEVKCRLLLALLEYSDSETQLRRDMVFCQTLVATVCAFSEQLMAALNQMFDNSKENEMETWEASRRWLDQIANAGVLFHFQSLLSPNLTDEQAMLEDTLVALFDLEKVSFYFKPSEEEPLVANVPLTYQAEGSRQALKVYFYIDSYHFEQLPQRLKNGGGFKIHPVLFAQALESMEGYYYRDNVSVEEFQAQINAASLEKVKQYNQKLRAFYLDKSNSPPNSTSKAAYVDKLMRPLNALDELYRLVASFIRSKRTAACANTACSASGVGLLSVSSELCNRLGACHIIMCSSGVHRCTLSVTLEQAIILARSHGLPPRYIMQATDVMRKQGARVQNTAKNLGVRDRTPQSAPRLYKLCEPPPPAGEE
